Laboratory results taken from US20260055141A1, “COMPOSITIONS AND METHODS FOR CONTROLLING FOOD INTAKE, ENERGY EXPENDITURE, AND BODY WEIGHT FOR THE TREATMENT OF OBESITY AND METABOLIC DISEASES” (The Trustees of the University of Pennsylvania, priority 2022, published 2026).
No end group written: not given here.

How the values were obtained:
[1] = target: T1, human GPR75 (372-540 aa region), His-tagged (human, UniProt O95800 372-540); assay: SPR (Nicoya OpenSPR), His-tagged GPR75 on NTA sensor, one-to-one fit; curve at 123.23 µM
T1 construct: range 372-540; also called G-Protein Receptor 75; not shown: His tag

[2] = target: T1, human GPR75 (372-540 aa region), …; assay: SPR (Nicoya OpenSPR), His-tagged GPR75 on NTA sensor, one-to-one fit; curve at 12.3 µM
[3] = target: T1, human GPR75 (372-540 aa region), …; assay: SPR (Nicoya OpenSPR), His-tagged GPR75 on NTA sensor, one-to-one fit; curve at 4.93 µM
[4] = target: T1, human GPR75 (372-540 aa region), …; assay: SPR (Nicoya OpenSPR), His-tagged GPR75 on NTA sensor, one-to-one fit; curve at 49.3 µM
[5] = target: T1, human GPR75 (372-540 aa region), …; assay: SPR (Nicoya OpenSPR), His-tagged GPR75 on NTA sensor, one-to-one fit; second curve at 49.3 µM
[6] = target: T1, human GPR75 (372-540 aa region), …; assay: SPR (Nicoya OpenSPR), His-tagged GPR75 on NTA sensor, one-to-one fit; curve at 4.9 µM
[7] = target: T1, human GPR75 (372-540 aa region), …; assay: SPR (Nicoya OpenSPR), His-tagged GPR75 on NTA sensor, one-to-one fit; curve at 24.65 µM
[8] = target: T1, human GPR75 (372-540 aa region), …; assay: SPR (Nicoya OpenSPR), His-tagged GPR75 on NTA sensor, one-to-one fit; second curve at 12.3 µM
[9] = target: T1, human GPR75 (372-540 aa region), …; assay: SPR (Nicoya OpenSPR), His-tagged GPR75 on NTA sensor, one-to-one fit; curve at 92.4 µM

Measured: koff

T1 sequence (O95800 372-540 limits assumed): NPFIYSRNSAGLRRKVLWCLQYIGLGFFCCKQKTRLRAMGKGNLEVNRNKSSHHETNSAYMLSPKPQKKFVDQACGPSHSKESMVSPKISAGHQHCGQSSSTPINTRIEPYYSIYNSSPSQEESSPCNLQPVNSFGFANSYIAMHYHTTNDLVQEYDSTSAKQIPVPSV

B1: SU75-37 (peptide)
peptide: TFTSDLSKYLEEEVREFIWLKNGGPSDVNTDRPGLLDLK-NH2
notes: Synthetic, non-naturally occurring peptide; also called Drug37; SUODN37
0.0141 s⁻¹: [1] | [2] | [3] | [4] | [5] | [6] | [7] | [8] | [9]
